Values quoted from earlier work, collected in article PMC11231610, “Fatty acid binding to the human transport proteins FABP3, FABP4, and FABP5 from a Ligand’s perspective” (The Journal of Biological Chemistry, 2024).

Target: Cgi-58 (Mus musculus) (UniProt Q9DBL9)
Experiment: MST

Cgi-58 (Mus musculus), sequence (Q9DBL9 whole entry): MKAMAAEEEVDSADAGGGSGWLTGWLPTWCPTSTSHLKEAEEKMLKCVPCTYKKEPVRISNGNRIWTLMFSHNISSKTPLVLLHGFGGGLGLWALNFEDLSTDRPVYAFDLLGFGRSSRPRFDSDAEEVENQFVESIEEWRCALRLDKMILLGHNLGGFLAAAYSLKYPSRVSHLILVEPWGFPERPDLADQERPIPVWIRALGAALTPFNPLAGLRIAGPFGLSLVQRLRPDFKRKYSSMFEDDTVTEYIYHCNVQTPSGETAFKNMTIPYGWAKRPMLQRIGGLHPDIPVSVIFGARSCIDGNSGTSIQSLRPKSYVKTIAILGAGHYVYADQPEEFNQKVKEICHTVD
FABP4, sequence (P04117 2-132): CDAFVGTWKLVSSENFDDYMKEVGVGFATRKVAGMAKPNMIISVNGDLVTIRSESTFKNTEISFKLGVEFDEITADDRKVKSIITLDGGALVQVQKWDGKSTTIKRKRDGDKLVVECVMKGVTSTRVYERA

## FABP4 (from UniProt P04117)
  Kd: 192 µM
